Reference: patent publication US11471509B2, “Compositions and methods relating to myomaker-induced muscle cell fusion” (The Board of Regents of the University of Texas System, priority 2013, dated 2022)

Assays:
C2C12 myoblasts = assay: Retroviral over-expression in C2C12 cells, myoblast fusion; assay type: cell-based; settings: 4 days of differentiation
[1] = test system: 10T1/2 fibroblasts mixed with C2C12 cells; assay: Cell mixing: infected 10T1/2 fibroblasts with C2C12 myoblasts; assay type: cell-based
Procedure: WT myoblasts were mixed with either Myomaker+/− or Myomaker−/− myoblasts at equal ratios (approximately 1×10^5 cells per genotype), plated on a well of a laminin coated 12-well plate, and induced to differentiate the next day. 10T1/2 fibroblasts were infected with either GFP- and empty-retrovirus or GFP- and Myomaker-retrovirus for 18 h. After infection, cells were washed multiple times and then trypsinized, and mixed with C2C12 myoblasts at a 1:1 ratio (1×10^5 of each cell type) and plated on one well of a 6 well plate in differentiation media. GFP and myosin expression was analyzed 4 days after differentiation. […]
Each histological analysis of embryonic skeletal muscle was performed on four samples per genotype. The differentiation index was calculated as the percentage of nuclei in myosin-positive cells. The fusion index was calculated as the percentage of nuclei contained in myosin-positive myotubes. […] To quantitate fusion between WT myoblasts and either Myomaker+/− or Myomaker−/− myoblasts, the inventors calculated the percentage of LacZ+ myotubes containing ≥3 nuclei. To quantitate fusion between fibroblasts and myoblasts, the inventors calculated the percentage of GFP+ myosin+ cells or the percentage of BrdU+ myotube nuclei. For each quantitation, at least 3 independent experiments were performed in duplicate and at least 6 random fields were imaged per sample. […]

B1: Tmem8b: closest relative of Myomaker/Tmem8c, not muscle-specific (protein, UniProt B1AWJ5 1-472, looked up)
Transmembrane protein 8B: MNMPQSLGTQPLPPEPPSLGTPIEGSGAIAPTEHCWPVRPTLRNELDTFSVHFYIFFGPSVALPPERPAVFALRLLPVLDSGGVLSLELQLNASSLRQENVTVFGCLTHEVPLSLGDAAVTCSKESLAGFLLSVSATSRVARLRIPFPQTGTWFLTLRSLCGVGPRFVRCRNATAEVRLRTFLSPCVDDCGPYGQCKLLRTHNYLYAACECKAGWRGWGCTDSADALTYGFQLLSTLLLCLSNLMFLPPVVLAIRSRYVLEAAVYTFTMFFSTFYHACDQPGIVVFCIMDYDVLQFCDFLGSLMSVWVTVIAMARLQPVIKQVLYLLGAMLLSMALQLDRHGLWNLLGPSLFALGILATAWTVRSVRRRHCYPPTWRRWLFYLCPGSLIAGSAVLLYAFVETRDNYFYIHSIWHMLIAGSVGFLLPPRAKTDRRVPSGARARGCGYQLCINEQEELGLVGPGGTTVSSICVS
C2C12 myoblasts
  myoblast fusion after forced expression: did not promote fusion

B2: Myomaker: muscle-specific membrane protein of 221 residues, expressed from pBabe-X retrovirus (protein, UniProt Q9D1N4 1-221, looked up)
Protein myomaker: MGTVVAKLLLPTLSSLAFLPTVSIATKRRFYMEAMVYLFTMFFVAFSHACDGPGLSVLCFMRRDILEYFSIYGTALSMWVSLMALADFDEPQRSTFTMLGVLTIAVRTFHDRWGYGVYSGPIGTATLIIAVKWLKKMKEKKGLYPDKSIYTQQIGPGLCFGALALMLRFFFEEWDYTYVHSFYHCALAMSFVLLLPKVNKKAGNAGAPAKLTFSTLCCTCV
[1]; 10T1/2 fibroblasts infected with GFP and Myomaker virus, mixed 1:1 with C2C12, 4 days differentiation
  fusion of infected fibroblasts with C2C12 cells: robustly fused with C2C12 cells
[1]; fibroblasts expressing Myomaker, no myoblasts
  fusion of fibroblasts in the absence of myoblasts: not sufficient to induce fusion of fibroblasts
C2C12 myoblasts
  myoblast fusion after forced expression: dramatic increase in fusion
